Values of other authors in publication PMC12732943.

Target: Fibrin (Homo sapiens) (UniProt P02671)

## GPVI (monomeric) (from UniProt Q9HCN6)
  Kd: 302 nM
